Assay results: the nanobody polyreactivity screen of Harvey et al. (2022)

assay: yeast display, Sf9 membrane polyspecificity reagent, FACS + sequencing; frameworks hold sequencing errors
In short: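 After 36–48 hours of galactose induction, yeast (Saccharomyces cerevisiae BJ5465) displaying a synthetic nanobody library were stained at 4 °C for 1 hour with 10% biotinylated, detergent-solubilized Sf9 membrane reagent. Streptavidin microbeads enriched the stained cells before FACS sorting into low and high (top ~1%) gates on anti-HA and streptavidin fluorescence. Each clone's polyreactivity label reflects its gate of origin.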

Sequence | polyreactivity (PSR sort gate)
QVQLVESGGGLVQAGGSLRLSCAASGSTIVLNDKRCYRQAPGKERELVAAITWSGGSTYYADSVKGRFTISRDNAKNTVYLQMNSLKPEDTAVYYCNVDYYGWPYWYEYDYWGQGTQVTVSS | high polyreactivity
QVQLVESGGGLVQAGGSLRLSCAASGSTIVYYAMGWYRQAPGKERELVAAITSDGSTDYADSVKGRFTISRDNAKNTVYLQMNSLKPEDTAVYYCAVVTFYFCTDYYDVDYWGQGTQVTVSS | low polyreactivity
QVQLVESGGGLVQAGGSLRLSCAASGSTIYAYAMGWYRQAPGKERELVAAIDSGGSTYYADSVKGRFTISRDNAKNTVYLQMNSLKPEDTAVYYCAVRHRYTRAYWGRDYWGQGTQVTVSS | low polyreactivity
QVQLVESGGGLVQAGGSLRLSCAASGSTIYPNAMGWYRQAPGKERELVARISRTGGSTYADSVKGRFTISRDNAKNTVYLQMNSLIPEDSAVYYCARSYASFSWLRTKEPYEYWGQGTQVTVSS | low polyreactivity
QVQLVESGGGLVQAGGSLRLSCAASGSTIYPNAMGWYRQAPGKERELVAVISSGGSTYYADSVKGRFTISRDNAKNTVYLLMNSLKPVDTAVYYCAADRGTVSYLYSPRAVDYWGQGTQVTVSS | low polyreactivity
QVQLVESGGGLVQAGGSLRLSCAASGSTIYPNAMGWYRQAPGQERELVAVISSGGSTYYADSVKGRFTISRDNAKNTVYLQMNSLKPEDTAVYYCAADRGTVSYLYSPRAVDYWGQGTQVTVSS | low polyreactivity
QVQLVESGGGLVQAGGSLRLSCAASGSTIYWYAMGWYRQAPGKERELVAAITDSGDDTYYADSVKGRFTISRDNAKKTVYLQMNSLKPVDTAVYYCAGEAWSVAPYEYWGQGTQVTVSS | low polyreactivity
QVQLVESGGGLVQAGGSLRLSCAASGSTIYYAMGWYRQAPGKERELVAAISYSGGSTRYADSVKGRFTISRDNAKNTVYLEMNFLKPEDTSVYYCAAPRKYYYGESPLDYWGQGTQVTVSS | high polyreactivity
QVQLVESGGGLVQAGGSLRLSCAASGSTIYYNAMGWYRQAPGKERELVARISRSGGSTYADSVKGRFTISRDNAKNTVYLQMNSVKPEDTAVYYCNADAYGTPEFSSYAVRYDYWGQGTQVTVSS | low polyreactivity
QVQLVESGGGLVQAGGSLRLSCAASGSTIYYYAMGWYRQAPGKERELVASISDDGSTNYADSVKGRFTISRDNAKNTVYLQMNSLKPEDTAVYYCAAVWWHQFGSAWYQMGYWGQGTQVTVSS | low polyreactivity
QVQLVESGGGLVQAGGSLRLSCAASGSTLAFYAMGWYRQAPGKERELVAAIRRGGSTYYADSVKGRFTISRDNAKNTVYLQMNSLKPEDTAVYYCAARYRRVSYYYWGQGTQVTVSS | high polyreactivity
QVQLVESGGGLVQAGGSLRLSCAASGSTLAIYAMGCYRQAPGKERELVASISRVGSTNYADSVKGRFTISRDNAKNTVYLQMNSRIPEDTAVYYCAARRWSYVILRAYYYWGQGTQETVSS | high polyreactivity
QVQLVESGGGLVQAGGSLRLSCAASGSTLAKYAMGWYRQAPGKERELVAAISRSGGRTYYADSEKGRFTISRDNAKNSVYLQMNSLKPEETAVYYCAARARSSRTYHDDYWGQGTQVTVSS | high polyreactivity
QVQLVESGGGLVQAGGSLRLSCAASGSTLAPYVKGWYIQAPGTERELVAVISTRTGRTYYADSVKGRFTISRDNAKNTVSLQMNSLKPEDTAVYYCAAAYGWSWYRYDYWGQGTQVTVSS | high polyreactivity
QVQLVESGGGLVQAGGSLRLSCAASGSTLAVYSMGWYRQAPGKEREFVAAISWSGVSTYYADSVKGRFTISRDNAKNTVYLQMNSLKPEDTAVYYCAAKRVRALYGGSEGGYWGQGTQVTVSS | low polyreactivity
QVQLVESGGGLVQAGGSLRLSCAASGSTLDLYAMGWYRQAPGKEREFVASISWSGGSTYYADSVKGRFTISRDNAKNTVYLQMNRLKPEDTAVYYCAADLVIRGSLYVSSWYDYWGQGSQVTVSS | low polyreactivity
QVQLVESGGGLVQAGGSLRLSCAASGSTLDVYDMGWYRKAPGKEREFVATISFSVGSTDYADSVKGRFTISRDNAKNTVYLQMNSLKPEDTAVYYCAADVSEWSNQYFDSYLRMDYWGQGTQVTVSS | low polyreactivity
QVQLVESGGGLVQAGGSLRLSCAASGSTLFFNARGWYRQAPGKERELVAGITDGGNTNYADSVKGRFTISRDNAKNTVYLQMNSLKPEDTAVYYCNARYSKKGESQREYDYWGQGTQVTVSS | low polyreactivity
QVQLVESGGGLVQAGGSLRLSCAASGSTLFNYDMGWYRQAPGKERELVAAFDWGDGTTYYADSVKGRFTISRDNAKNTVYLQMNSLKPEDTAVYYCAAEEFYSPYDYWGQGTQVTVSS | high polyreactivity
QVQLVESGGGLVQAGGSLRLSCAASGSTLFTYAMGWYRQAPGNERELVAAITSSGSTYYADSVKGRFTISRDNATNTVSLQMKSLKPEDTAVYYCAGPGYRYTNYYYWGQGTQVTVSS | low polyreactivity
QVQLVESGGGLVQAGGSLRLSCAASGSTLGINAMGWYRQAPGKERELVAAITWNGGSTYYADSVKGRFTISRDNAKNTVYLQMNSLKPEDTAVYYCAARTYSSRYYRTREGFDYYYWGQGTQVTVSS | high polyreactivity
QVQLVESGGGLVQAGGSLRLSCAASGSTLGQYAMGWYRQAPGKERELVAASRRGVRTYYADSVKGRFTISRDNAKNTVYFQMNSLKPEDTAVFYCAARRDVSRPVVGTMGYWGQGSQVTVSS | high polyreactivity

Sequence | polyreactivity (PSR sort gate)
QVQLVESGGGLVQAGGSLRLSCAASGSTLGRYAMGWYRQAPGKERELVAAISSSGTTYYADSVKGRITISRDNAKNTVYLQMNSLKPEDTAVYYCNARGFRVARHAAWYQYDYWGQGTQVTVSS | high polyreactivity
QVQLVESGGGLVQAGGSLRLSCAASGSTLGRYTMGWSRQAPGKERELVAAIRASGTSTYYADSVKGRFTISRDNAKNTVYLQMNSLKPEDTAVYYCNALQFGTVRLDSWGLGTQVTVSS | low polyreactivity
QVQLVESGGGLVQAGGSLRLSCAASGSTLGRYTMGWYRQAPGKERELVATITASGGGTYYADSVKGRFTISRDTAKNTVYLQMNSLKPEDTAVYYCNAVLWYHFGYDYWGQGTQVTVSS | low polyreactivity
QVQLVESGGGLVQAGGSLRLSCAASGSTLGWYVMGWYRQAPGKERELVAAISKSGGRTYYADSVKGRFTISRDNAKNTVYLQMNSLKPEDTAVYYCAAYPPSDFYYEHDYWGQGTQVSVSS | high polyreactivity
QVQLVESGGGLVQAGGSLRLSCAASGSTLGYNVMGWYRQAPGKERELVAAISGDGSTNYADSVNGRFTMSRDNAKNTVYLQMNSLKPEDTAVYYCNAPFWGYRTSFSYPVVLRFDYWGQGTQVTVSS | low polyreactivity
QVQLVESGGGLVQAGGSLRLSCAASGSTLGYYSMGWYRQAPGKERELVAAIRYSDGNTYYADSVKGRFTISRDNAKNTVYLQMNSLKPEDTAVYYCAADGGYYGRDYWGQVTQVTVSS | high polyreactivity
QVQLVESGGGLVQAGGSLRLSCAASGSTLKLNAMGWYRQAPGKERELVAAITRSGGSTYYADSVKGRFTISRDNAKNTVYLQMNSLKPEDTAVYYCAADVLWDEFGYWGQGTQVTVSS | low polyreactivity
QVQLVESGGGLVQAGGSLRLSCAASGSTLLTYTMGWYRQAPGKERELVASITTSGGSTYADSVKGRFTISRDNAKNTVYLQLNSLKPEDTAVYYCAALYLWYSYHVVYQYDYWGQGTQVTVSS | low polyreactivity
QVQLVESGGGLVQAGGSLRLSCAASGSTLLTYTMGWYRQAPGKESELVASITTSGGSTYYADSVKGRFTISRDNAKNTVYLQMNSLKPEDTAVYYWGQGTQVTVSS | low polyreactivity
QVQLVESGGGLVQAGGSLRLSCAASGSTLNLYAMGWFRQAPGKEMELVAAIRSHGVSTYYADSVKGRFTISRDNAKNTVYLQMNRLKPEYTAFYYCAGVYIPGGRYTYFPYKRYDYWGQGTQVTVSS | high polyreactivity
QVQLVESGGGLVQAGGSLRLSCAASGSTLNSYVMGWYRQAPGKERELVATIRSGSSTNYADSVNGRFTISRDNAKNTVYLQMNSLKPEDTAVYYCAADAYSLCYDSWGQGTQVTVSS | low polyreactivity
QVQLVESGGGLVQAGGSLRLSCAASGSTLPPYVMGRYRQAPGKERELVAAISSSSGSTYYADSVKGRFTISRDNAKNTVYLQRNSLKPEDTAVYYCAAVTGWAREEEYWGQGTQVTVSS | low polyreactivity
QVQLVESGGGLVQAGGSLRLSCAASGSTLPYYAMGWYRQAPGKERELVAAITSSGGDTYYADSVKGRFTISRDNAKNTVYLQMNSLKPEDTAVYYCAKSYSARSTVRKLFYFAYDYWGQGTQVTVSS | low polyreactivity
QVQLVESGGGLVQAGGSLRLSCAASGSTLQYYDMGWYRQAPGKERELVAAITWSTGTTYYADSVKGRFTISRDNAKNTVYLQMNSLKPEDTAVYYCAVDSYYRATYTNRYDYWGQGTQVTVSS | low polyreactivity
QVQLVESGGGLVQAGGSLRLSCAASGSTLRGYALGWYRQAPGKERELVAAISKNGGSTYYADSVKGRFTISRDNAKNTVYLQMNSLNPEDTAVYYCAAYKAVPHYYYWGQGTQVTVSS | high polyreactivity
QVQLVESGGGLVQAGGSLRLSCAASGSTLRPYGMGWYRQAPGKERELVATIRSSSGRTYYADSVKGRFTISRDNAKTTVYLQMTSLKPEDTAVYYCARRYITNIKYDYWGQGTQVTVSS | high polyreactivity
QVQLVESGGGLVQAGGSLRLSCAASGSTLRRNAMGWYRQAPGTERELVAAITGSRGSTFYADSVKGRFTISRDNAKNTVYLQMNSLKPEDTAVYYCAVYKWSTRVSQYRYDYWGQGTQVTVSS | high polyreactivity
QVQLVESGGGLVQAGGSLRLSCAASGSTLRRYAMGWDRQAPGKERELVAAISGSGDSTYYADSVKGRFTISRDNAKNTVYLQMNSLKPEDTAVYYCNAVYAFNGYDYWGQGTQVTVSS | low polyreactivity
QVQLVESGGGLVQAGGSLRLSCAASGSTLRYYGMGWYRQAPGKEREFVATLSWGGGSTYYADSVKGRFTISRDNAKNTVYLQINSLKPEDTAVYYCAASWNGGLFQTKYGYWGQGTQVTVSS | high polyreactivity
QVQLVESGGGLVQAGGSLRLSCAASGSTLSANAMGWYRQAPGKERELVAAISWNGGSTYYADSVKGRFTISRDNAKNTVYLQMNSLKPEDTAVYYCAAEYIVTYEYWYFGYDYWGQGTQVTVSS | low polyreactivity
QVQLVESGGGLVQAGGSLRLSCAASGSTLSFNAMGWYRQAPGKERELVAAITSSGGSTYYADSVKGRFTISRDNAKNTVYLQMKSLKPEDTAVYYCAADRYTVRMDYWGQGTQVTVSS | high polyreactivity
